Results: patent publication US20260242493A1

Columns and labels:
[1] = molecular target: recombinant human CD40L (BioLegend Cat. #591706) (human) (UniProt P29965); assay: ELISA on coated rhCD40L; lower limit of IC50
[2] = molecular target: recombinant human FcγRI (human) (UniProt P12314); assay: ELISA: test protein coated, recombinant human FcγRI titrated, anti-CD64 detection, A450
Chain of recombinant human FcγRI (human) (P12314 16-288 limits assumed): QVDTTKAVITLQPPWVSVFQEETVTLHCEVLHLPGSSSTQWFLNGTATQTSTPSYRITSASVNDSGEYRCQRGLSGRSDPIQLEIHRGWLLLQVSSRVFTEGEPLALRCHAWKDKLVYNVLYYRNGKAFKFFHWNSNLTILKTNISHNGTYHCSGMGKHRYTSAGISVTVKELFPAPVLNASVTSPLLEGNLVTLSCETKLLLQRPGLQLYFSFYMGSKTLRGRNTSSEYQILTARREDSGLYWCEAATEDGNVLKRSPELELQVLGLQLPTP

Chain of recombinant human CD40L (BioLegend Cat. #591706) (human) (P29965 113-261 limits assumed, form in doubt): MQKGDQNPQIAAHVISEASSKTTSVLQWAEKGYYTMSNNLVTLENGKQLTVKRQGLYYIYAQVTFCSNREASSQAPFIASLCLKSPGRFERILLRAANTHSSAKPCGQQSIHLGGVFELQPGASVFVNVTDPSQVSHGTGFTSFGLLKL

Q: Which results are given for “anti-CD40L antibody 5c8 (reference antibody)”?
A: LCL [1]: 0.04; EC50 (read off the curve) [2]: 0.2 µg/mL
